The target of one test is T1, soluble CD32B (sCD32B) (human, UniProt P31994 43-217, biotin where used as the ELISA probe).
T1 construct: extracellular domain; also called soluble CD32B ectodomain; sCD32B-biotin
T1 sequence (looked up): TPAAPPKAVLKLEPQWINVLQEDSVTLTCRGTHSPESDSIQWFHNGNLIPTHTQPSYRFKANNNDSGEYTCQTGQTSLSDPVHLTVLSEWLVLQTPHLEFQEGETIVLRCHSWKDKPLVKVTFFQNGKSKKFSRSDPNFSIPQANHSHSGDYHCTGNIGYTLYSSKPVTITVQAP
Kind of test: SPR (BIAcore), receptor immobilised. How it is done:
(§1) (A) Binding to sCD16; (B) Binding to sCD32B and (C) Binding to sCD32A. Diabodies were injected at a concentration of 100 NM, and scFv at a concentration of 200 nM, over receptor surfaces at a flow rate of […] for 60 sec.
(§2) sCD16A, sCD32B or sCD32A (negative control) were immobilized on one of the four flow cells (flow cell 2) of a sensor chip surface through amine coupling chemistry (by modification of carboxymethyl groups with mixture of NHS/EDC) such that about 1000 response units (RU) of either receptor was immobilized on the surface. Following this, the unreacted active esters were “capped off” with an injection of 1M Et-NH2.
(SPR reads the build-up and loss of mass on a sensor chip optically.)

Another test has as its target T2, sCD32A (UniProt P12318 34-217, limits assumed).
T2 construct: extracellular domain; Negative control surface in SPR; also called control receptor
T2 sequence (looked up): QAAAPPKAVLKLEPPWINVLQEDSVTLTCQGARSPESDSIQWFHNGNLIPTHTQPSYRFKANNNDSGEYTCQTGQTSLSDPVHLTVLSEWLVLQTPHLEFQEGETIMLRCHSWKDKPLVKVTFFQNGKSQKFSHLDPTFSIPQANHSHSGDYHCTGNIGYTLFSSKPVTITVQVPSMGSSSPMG
Kind of test: SPR (BIAcore), receptor immobilised. How it is done:
as §1, §2

The next test addresses T3, sCD32B-Ig (UniProt P31994 43-217).
T3 construct: extracellular domain; not shown: Ig part of sCD32B-Ig; not described
T3 sequence (looked up): T1 sequence (looked up)
The test can be described thus: sandwich ELISA: sCD32B-Ig coated, diabody, sCD16A-Biotin probe, streptavidin-HRP. How it is done:
The plate was then incubated at room temperature for 1 hour.
(An ELISA detects its analyte on a solid surface through an enzyme-linked reagent.)

A further test deals with T4, soluble CD16A (sCD16A) (human, UniProt P08637 17-208, biotin or HRP conjugate where used as the ELISA probe).
T4 construct: extracellular domain; Printed only as soluble CD16A; also called hCD16A; hCD16
Kind of test: SPR (BIAcore), receptor immobilised, diabody 6.25-200 nM as analyte, bivalent analyte fit. The procedure:
Diabodies were injected at concentrations of 6.25-200 nM over receptor surfaces at a flow rate of […] for 180 sec.
as §2

T4 sequence (P08637 17-208): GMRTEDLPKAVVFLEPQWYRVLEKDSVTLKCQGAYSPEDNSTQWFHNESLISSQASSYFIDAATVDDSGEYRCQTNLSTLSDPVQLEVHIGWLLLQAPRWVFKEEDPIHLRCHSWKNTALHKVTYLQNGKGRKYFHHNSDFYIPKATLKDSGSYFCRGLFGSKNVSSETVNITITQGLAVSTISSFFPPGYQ

B1: h3G8 covalent monospecific diabody (CMD) (other)
chain: DIVMTQSPDSLAVSLGERATINCKASQSVDFDGDSFMNWYQQKPGQPPKLLIYTTSNLESGVPDRFSGSGSGTDFTLTISSLQAEDVAVYYCQQSNEDPYTFGQGTKLEIKGGGSGGGGQVTLRESGPALVKPTQTLTLTCTFSGFSLSTSGMGVGWIRQPPGKALEWLAHIWWDDDKRYNPALKSRLTISKDTSKNQVVLTMTNMDPVDTATYYCAQINPAWFAYWGQGTLVTVSSLGGC
notes: Covalent homodimer of construct 3; also called h3G8 CMD; h3G8 diabody
Turning to B1, the binding result with soluble CD32B (sCD32B) was “no binding (tested: 100 nM)”; with sCD32A it was “no binding (tested: 100 nM)”; with sCD32B-Ig, “no binding (tested: 0.5 µg/ml to 0.001 µg/ml)”. In the test with soluble CD16A (sCD16A), the Kd stood at 18 nM.

Source of the values: patent US20100174053A1 (published 2010).
